Series [1] deals with the molecule itself. Put plainly: gel filtration (Superdex 75), self-association. The procedure: The oligomeric states of peptides were determined by filtration as described in Traincard et al., 2003. In brief, 500 μl samples were loaded on a SUPERDEX™ 75 HR 10/30 column equilibrated in 50 mM Tris-HCl pH 8.0 containing 200 mM NaCl and 0.1 mM DDM, at a constant flow rate of 0.4 ml/min. The presence of the DDM detergent was added in the equilibrium buffer to minimize the adsorption in the column and to increase the peptide recovery. The column was calibrated in the same equilibrium buffer with blue dextran 2000 (void volume), dithioerythritol (total volume), bovine serum albumin (67 kDa, Rs=35.2 Å), ovalbumine (43 kDa, Rs=27.5 Å), chymotrypsinogen A (25 kDa, Rs=21.1 Å), ribonuclease A (13.7 kDa, Rs=16.4 Å), cytochrome C (12.4 kDa, Rs=17.7 Å) and aprotinin (6.5 KDa, Rs=13.5 Å).
(SEC sorts molecules by how far they enter the pores of the column.)

For series [2], the target named is T1, NEMO (NF-kB essential modulator), murine (murine, UniProt O88522 1-412). Put plainly: cell-based or functional assay.
Series [3] concerns the target T2, CC2 (WT) (murine, N-terminal acetyl group; C-terminal amide).
T2 construct: Forms a trimer at 10 uM in gel filtration; also called CC2 peptide; CC2 wild type
T2 peptide: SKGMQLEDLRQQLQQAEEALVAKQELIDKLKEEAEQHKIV
Briefly: fluorescence anisotropy, 1 µM BODIPY-Ant-CC2 titrated with CC2. The procedure: (§1) (A) Direct titration of BODIPY-Ant-CC2 (1 μM) with CC2 by fluorescence anitropy. The concentration of CC2 was determined by amino acid analysis. Anisotropy values of BODIPY-Ant-CC2 in milliunits (mA) were plotted against an increasing concentration of the CC2 peptide. […] The two dashed lines represent a stoichiometric titration and intersect at an CC2 concentration of […]. Given the 1 μM concentration of the BODIPY-Ant-CC2, this gives a complex stoechiometrie of 0.8. (B) Direct titration of BODIPY-Ant-LZ (0.1 μM) with CC2 by fluorescence anitropy. The anisotropy values of the BODIPY-Ant-LZ alone (white bar) or in the presence of the CC2 peptide (30 μM, grey bar; 100 μM, black bar) are given in milliunits (mA).
(§2) Anisotropy measurements were performed with a PTI […]™ fluorometer equipped with polarizers for the excitation and emission beams. This instrument uses a PMT in the L-configuration. […] Steady-state fluorescence anisotropy was expressed as millianisotropy (mA) and was calculated according to the equations: (1) A=(IVV−GIVH)/(IVV+2GIVH); (2) G=IHV/IHH.; where A is anisotropy, G is a correction factor for wavelength-dependent distortion and I is the fluorescence intensity component (subscript referring to the vertical and horizontal positioning at the excitation and emission polarizers, respectively). […]

The target in series [4] is T2, CC2 (WT). Put plainly: fluorescence anisotropy, 1 µM BODIPY-Ant-CC2 titrated with 1-125 µM CC2. The procedure: as §1, §2
The target of series [5] is T1, NEMO (NF-kB essential modulator), murine. Put plainly: cell-based or functional assay. This is another data set of the same source.

Experimental findings from US20080207517A1 (INSTITUT PASTEUR, published 2008) are described below.

* marks the point of attachment. BODIPYFLEthylmaleimide = Cc1cc(C)n2c1C=C1C=CC(CCC(=O)NCCN3C(=O)CC(*)C3=O)=[N+]1[B-]2(F)F

T1 sequence (O88522 other isoform, or with tags, fused parts or gaps): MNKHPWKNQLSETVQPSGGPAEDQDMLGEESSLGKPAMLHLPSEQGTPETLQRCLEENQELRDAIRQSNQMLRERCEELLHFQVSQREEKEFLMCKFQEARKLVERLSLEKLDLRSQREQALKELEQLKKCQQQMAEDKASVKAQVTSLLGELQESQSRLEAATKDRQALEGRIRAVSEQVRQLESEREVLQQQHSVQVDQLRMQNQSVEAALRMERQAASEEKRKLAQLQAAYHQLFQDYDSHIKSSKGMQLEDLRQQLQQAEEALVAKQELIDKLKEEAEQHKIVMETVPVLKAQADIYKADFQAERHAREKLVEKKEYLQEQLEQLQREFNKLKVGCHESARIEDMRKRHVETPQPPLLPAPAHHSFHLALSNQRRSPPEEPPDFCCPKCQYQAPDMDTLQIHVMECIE

B1: BODIPY-Ant-CC2 (Mu) (peptide)
peptide: Ac-C(BODIPYFLEthylmaleimide)RQIKIWFQNRRMKWKKSKGMQLEDLRQQGQQAEEAGVAKQELGDKLKEEAEQHKIV-NH2
notes: also called CC2 variant
Take B1: the binding result in series [1] is “no binding (tested: 10 µM)”.

B2: BODIPY-Ant-CC2 (WT) (peptide)
peptide: Ac-C(BODIPYFLEthylmaleimide)RQIKIWFQNRRMKWKKSKGMQLEDLRQQLQQAEEALVAKQELIDKLKEEAEQHKIV-NH2
notes: Synthetic peptide; elutes as a monomer in gel filtration at 10 uM; also called Ant-CC2 BODIPY peptide
By Kd is commonly meant the free concentration of one partner at which half of the binding sites on the other are occupied at equilibrium, for simple one-to-one binding. B2: in series [2], the “IC50 of inhibition of LPS-induced NF-κB activation (β-galactosidase reporter, 70Z3-C3 cells)” value was 22 µM and the “fold reduction of LPS-induced NF-κB activation at 10 µM peptide (stringent β-galactosidase assay, 70Z3-C3 cells)” value is 1.7 fold. Moreover, in series [1], the binding result is recorded as “no binding (tested: 10 µM)”. Further, in series [3], the stoichiometry came to 0.8. This molecule also gave a Kd in series [4] of 15.2 µM.

B3: BODIPY-Ant-NLM-DR (peptide)
peptide: Ac-C(BODIPYFLEthylmaleimide)RQIKIWFQNRRMKWKKLKAQADIYKARFQAERHAREK-NH2
SMILES: CC[C@H](C)[C@H](NC(=O)[C@H](CC(=O)O)NC(=O)[C@H](C)NC(=O)[C@H](CCC(N)=O)NC(=O)[C@H](C)NC(=O)[C@H](CCCCN)NC(=O)[C@H](CC(C)C)NC(=O)[C@H](CCCCN)NC(=O)[C@H](CCCCN)NC(=O)[C@H](Cc1c[nH]c2ccccc12)NC(=O)[C@H](CCCCN)NC(=O)[C@H](CCSC)NC(=O)[C@H](CCCNC(=N)N)NC(=O)[C@H](CCCNC(=N)N)NC(=O)[C@H](CC(N)=O)NC(=O)[C@H](CCC(N)=O)NC(=O)[C@H](Cc1ccccc1)NC(=O)[C@H](Cc1c[nH]c2ccccc12)NC(=O)[C@@H](NC(=O)[C@H](CCCCN)NC(=O)[C@@H](NC(=O)[C@H](CCC(N)=O)NC(=O)[C@H](CCCNC(=N)N)NC(=O)[C@H](CSC1CC(=O)N(CCNC(=O)CCC2=[N+]3C(=Cc4c(C)cc(C)n4[B-]3(F)F)C=C2)C1=O)NC(C)=O)[C@@H](C)CC)[C@@H](C)CC)C(=O)N[C@@H](Cc1ccc(O)cc1)C(=O)N[C@@H](CCCCN)C(=O)N[C@@H](C)C(=O)N[C@@H](CCCNC(=N)N)C(=O)N[C@@H](Cc1ccccc1)C(=O)N[C@@H](CCC(N)=O)C(=O)N[C@@H](C)C(=O)N[C@@H](CCC(=O)O)C(=O)N[C@@H](CCCNC(=N)N)C(=O)N[C@@H](Cc1c[nH]cn1)C(=O)N[C@@H](C)C(=O)N[C@@H](CCCNC(=N)N)C(=O)N[C@@H](CCC(=O)O)C(=O)N[C@@H](CCCCN)C(N)=O
For B3, the “IC 50 (inhibition of NF-κB activation pathway)” value in series [5] is 1.1 µM.

B4: CC2 (Mu) (peptide)
peptide: Ac-SKGMQLEDLRQQGQQAEEAGVAKQELGDKLKEEAEQHKIV-NH2
notes: As for CC2 (WT), the printed theoretical mass (3987.43 Da) fits residues 6-40 only; also called CC2 mutant
On to B4, for which the binding result in series [1] is given as “no binding (tested: 10 µM)”.

B5: BODIPY-Ant-LZ (WT) (peptide)
peptide: Ac-C(BODIPYFLEthylmaleimide)RQIKIWFQNRRMKWKKLKAQADIYKADFQAERHAREKLVEKKEYLQEQLEQLQREFNKL-NH2
notes: Synthetic peptide; elutes as a monomer in gel filtration at 10 uM
Turning to B5, in series [2], the “IC50 of inhibition of LPS-induced NF-κB activation (β-galactosidase reporter, 70Z3-C3 cells)” value was determined as 3 µM and the “fold reduction of LPS-induced NF-κB activation at 10 µM peptide (stringent β-galactosidase assay, 70Z3-C3 cells)” value is 5.8 fold. For the same molecule, the binding result in series [1] is listed as “no binding (tested: 10 µM)”.

B6: BODIPY-R7-NLM-DR (peptide)
peptide: Ac-C(BODIPYFLEthylmaleimide)RRRRRRRLKAQADIYKARFQAERHAREK-NH2
SMILES: CC[C@H](C)[C@H](NC(=O)[C@H](CC(=O)O)NC(=O)[C@H](C)NC(=O)[C@H](CCC(N)=O)NC(=O)[C@H](C)NC(=O)[C@H](CCCCN)NC(=O)[C@H](CC(C)C)NC(=O)[C@H](CCCNC(=N)N)NC(=O)[C@H](CCCNC(=N)N)NC(=O)[C@H](CCCNC(=N)N)NC(=O)[C@H](CCCNC(=N)N)NC(=O)[C@H](CCCNC(=N)N)NC(=O)[C@H](CCCNC(=N)N)NC(=O)[C@H](CCCNC(=N)N)NC(=O)[C@H](CSC1CC(=O)N(CCNC(=O)CCC2=[N+]3C(=Cc4c(C)cc(C)n4[B-]3(F)F)C=C2)C1=O)NC(C)=O)C(=O)N[C@@H](Cc1ccc(O)cc1)C(=O)N[C@@H](CCCCN)C(=O)N[C@@H](C)C(=O)N[C@@H](CCCNC(=N)N)C(=O)N[C@@H](Cc1ccccc1)C(=O)N[C@@H](CCC(N)=O)C(=O)N[C@@H](C)C(=O)N[C@@H](CCC(=O)O)C(=O)N[C@@H](CCCNC(=N)N)C(=O)N[C@@H](Cc1c[nH]cn1)C(=O)N[C@@H](C)C(=O)N[C@@H](CCCNC(=N)N)C(=O)N[C@@H](CCC(=O)O)C(=O)N[C@@H](CCCCN)C(N)=O
In the case of B6, the “IC 50 (inhibition of NF-κB activation pathway)” value in series [5] stood at 0.9 µM.

B7: BODIPY-TAT-NLM-DR (peptide)
peptide: Ac-C(BODIPYFLEthylmaleimide)YGRKKRRQRRRLKAQADIYKARFQAERHAREK-NH2
SMILES: CC[C@H](C)[C@H](NC(=O)[C@H](CC(=O)O)NC(=O)[C@H](C)NC(=O)[C@H](CCC(N)=O)NC(=O)[C@H](C)NC(=O)[C@H](CCCCN)NC(=O)[C@H](CC(C)C)NC(=O)[C@H](CCCNC(=N)N)NC(=O)[C@H](CCCNC(=N)N)NC(=O)[C@H](CCCNC(=N)N)NC(=O)[C@H](CCC(N)=O)NC(=O)[C@H](CCCNC(=N)N)NC(=O)[C@H](CCCNC(=N)N)NC(=O)[C@H](CCCCN)NC(=O)[C@H](CCCCN)NC(=O)[C@H](CCCNC(=N)N)NC(=O)CNC(=O)[C@H](Cc1ccc(O)cc1)NC(=O)[C@H](CSC1CC(=O)N(CCNC(=O)CCC2=[N+]3C(=Cc4c(C)cc(C)n4[B-]3(F)F)C=C2)C1=O)NC(C)=O)C(=O)N[C@@H](Cc1ccc(O)cc1)C(=O)N[C@@H](CCCCN)C(=O)N[C@@H](C)C(=O)N[C@@H](CCCNC(=N)N)C(=O)N[C@@H](Cc1ccccc1)C(=O)N[C@@H](CCC(N)=O)C(=O)N[C@@H](C)C(=O)N[C@@H](CCC(=O)O)C(=O)N[C@@H](CCCNC(=N)N)C(=O)N[C@@H](Cc1c[nH]cn1)C(=O)N[C@@H](C)C(=O)N[C@@H](CCCNC(=N)N)C(=O)N[C@@H](CCC(=O)O)C(=O)N[C@@H](CCCCN)C(N)=O
As for B7, the “IC 50 (inhibition of NF-κB activation pathway)” value in series [5] is 1 µM.

B8: BODIPY-R9-NLM-DR (peptide)
peptide: Ac-C(BODIPYFLEthylmaleimide)RRRRRRRRRLKAQADIYKARFQAERHAREK-NH2
SMILES: CC[C@H](C)[C@H](NC(=O)[C@H](CC(=O)O)NC(=O)[C@H](C)NC(=O)[C@H](CCC(N)=O)NC(=O)[C@H](C)NC(=O)[C@H](CCCCN)NC(=O)[C@H](CC(C)C)NC(=O)[C@H](CCCNC(=N)N)NC(=O)[C@H](CCCNC(=N)N)NC(=O)[C@H](CCCNC(=N)N)NC(=O)[C@H](CCCNC(=N)N)NC(=O)[C@H](CCCNC(=N)N)NC(=O)[C@H](CCCNC(=N)N)NC(=O)[C@H](CCCNC(=N)N)NC(=O)[C@H](CCCNC(=N)N)NC(=O)[C@H](CCCNC(=N)N)NC(=O)[C@H](CSC1CC(=O)N(CCNC(=O)CCC2=[N+]3C(=Cc4c(C)cc(C)n4[B-]3(F)F)C=C2)C1=O)NC(C)=O)C(=O)N[C@@H](Cc1ccc(O)cc1)C(=O)N[C@@H](CCCCN)C(=O)N[C@@H](C)C(=O)N[C@@H](CCCNC(=N)N)C(=O)N[C@@H](Cc1ccccc1)C(=O)N[C@@H](CCC(N)=O)C(=O)N[C@@H](C)C(=O)N[C@@H](CCC(=O)O)C(=O)N[C@@H](CCCNC(=N)N)C(=O)N[C@@H](Cc1c[nH]cn1)C(=O)N[C@@H](C)C(=O)N[C@@H](CCCNC(=N)N)C(=O)N[C@@H](CCC(=O)O)C(=O)N[C@@H](CCCCN)C(N)=O
Turning to B8, in series [5], the “IC 50 (inhibition of NF-κB activation pathway)” value was 0.9 µM.

B9: BODIPY-Ant-LZ (Mu) (peptide)
peptide: Ac-C(BODIPYFLEthylmaleimide)RQIKIWFQNRRMKWKKLKAQADIYKADFQAERHAREKLVEKKEYSQEQLEQSQREFNKL-NH2
notes: Two L to S mutations at d positions; also called BODIPY-Ant LZ mutant
Turning to B9, in series [1], the binding result is “no binding (tested: 10 µM)”.
